The source of these data is PMC7454256 (Antibody Therapeutics, 2020).

Sequences and labels used below:
B1: ADI-15878 (antibody, V domains shown)
VH: QVQLVQSGVTLVQPGGSLRVSCAASGFTFSSYAMSWVRQAPGKGLEWVSAISGLGGSTYYADSVKGRFTISRDNSKNTLYLQMNSLRAEDTAVYYCAKDHRVWAAGYHFDYWGQGALVTVSS
VL: DIVLTQSPSTLSASVGDRVTITCRASQSISSWLAWYQQKPGEAPKLLISDASSLESGVPSRFSGSGSGTEFTLTISSLQPDDFATYYCQQYYSSPIFGGGTKVEIK
notes: also called PE-87; Control PE-87; source: supplied in purified form (Integrated Biotherapeutics)
B2: KZ52 (antibody, V domains shown)
VH: EVQLLESGGGLVKPGGSLRLSCAASGFTLINYRMNWVRQAPGKGLEWVSSISSSSSYIHYADSVKGRFTISRDNAENSLYLQMNSLRAEDTAVYYCVREGPRATGYSMADVFDIWGQGTMVTVSS
VL: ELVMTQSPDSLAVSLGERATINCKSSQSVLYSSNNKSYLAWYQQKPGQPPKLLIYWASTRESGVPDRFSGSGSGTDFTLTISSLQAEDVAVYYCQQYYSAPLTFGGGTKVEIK
notes: source: supplied in purified form (Integrated Biotherapeutics)
B3: mAb114 (antibody, V domains shown)
VH: EVQLVESGGGLIQPGGSLRLSCAASGFALRMYDMHWVRQTIDKRLEWVSAVGPSGDTYYADSVKGRFAVSRENAKNSLSLQMNSLTAGDTAIYYCVRSDRGVAGLFDSWGQGILVTVSS
VL: DIQMTQSPSSLSASVGDRITITCRASQAFDNYVAWYQQRPGKVPKLLISAASALHAGVPSRFSGSGSGTHFTLTISSLQPEDVATYYCQNYNSAPLTFGGGTKVEIK
notes: as for B2
B4: CA45 (antibody, V domains shown)
VH: QVQLQEWGEGLVKPSETLSLTCAVYGGSISGYYHWNWIRLPPGKGLEWIGNIDGNSASTNYNPSLKTRVTISKDTSKNQISLKVRSLTAADTAVYYCARDPGFTIFGVVITSWSGLDSWGQGAVVTVSS
VL: DIQMTQSPSSLSASVGDTVTITCRASQSISNNLAWYQQRPRRAPQLLIYAASNLASGVPSRFSGSGSGTDFTLTISSLQAEDFAAYYCQQHNTLPLTFGGGTKVEIK
B5: mAb100 (antibody, V domains shown)
VH: QVQLQESGPGLVKPSDTLSLTCTVSGGSLSSFYWSWIRQPPGKGLEWIGYIYYSGSPNYSPSLESRVTMSVDTTRNQISLKLDSVTAADTAVYYCVRASRSYYWGSYRPTAFDSWGQGTLVTVSS
VL: YELTQPLSVSVSPGQTAIFTCSGDNLGDKYVCWFQQRPGQSPMLLIYQDNKRPSGIPERFSGSNSGNTATLTISGTQSTDEADYYCQTWDSTVVFGGGTKLTVL
B6: ADI-15946 (antibody, V domains shown)
VH: EVQLVESGGGLVKPGGSLRLSCAASGFTFSNAWMSWVRQAPGKGLEWVGRIKSKTDGGTIDYAAPVKGRFTISRDDSKNTVYLQMTSLKTEDTAVYYCTTYTEDMRYFDWLLRGGETFDYWGQGTLVTVSS
VL: DIRLTQSPSSLSASVGDRVTITCRASHYISTYLNWYQQKPGKAPKLLIYAASNLQSGVPSRFSGSGFGTDFSLTISSLQPEDFATYHCQQSYSTPGRYTFGQGTKVEIK
notes: also called PE-64

One assay has as its target T1, Ebola virus glycoprotein (EBOV GP), trimer of the GP1 + GP2 heterodimer lacking the transmembrane domain (Ebola virus, Mayinga strain, UniProt Q05320).
T1 construct: also called soluble Ebola virus glycoprotein; EBOV GP trimer complex of GP1 + GP2 heterodimer; source: Drosophila S2 cells; supplied by Integrated Biotherapeutics, purified
In words: SPR. To be noted: both partners purified.
T1 sequence (Q05320 33-637, one chain of several): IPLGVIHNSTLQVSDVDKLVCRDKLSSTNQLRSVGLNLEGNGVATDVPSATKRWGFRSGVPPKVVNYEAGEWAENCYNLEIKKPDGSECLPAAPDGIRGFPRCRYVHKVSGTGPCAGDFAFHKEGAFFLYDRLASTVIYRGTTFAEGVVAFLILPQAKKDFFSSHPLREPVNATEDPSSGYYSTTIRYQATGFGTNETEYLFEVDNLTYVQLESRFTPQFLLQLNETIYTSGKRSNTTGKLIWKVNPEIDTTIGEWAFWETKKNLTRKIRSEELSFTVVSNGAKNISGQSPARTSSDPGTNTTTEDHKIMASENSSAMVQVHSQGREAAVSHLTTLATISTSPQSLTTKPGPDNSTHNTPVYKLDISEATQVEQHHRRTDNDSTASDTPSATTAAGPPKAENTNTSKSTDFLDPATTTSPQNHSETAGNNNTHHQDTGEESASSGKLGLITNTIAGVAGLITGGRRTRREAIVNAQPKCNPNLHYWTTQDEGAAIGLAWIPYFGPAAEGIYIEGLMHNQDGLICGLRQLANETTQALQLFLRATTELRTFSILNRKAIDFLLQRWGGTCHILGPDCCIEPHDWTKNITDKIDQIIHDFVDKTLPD
For the molecule B1, the binding result is reported as “binds”.

For the molecule B2, the binding result is “binds”.

For B3, the binding result was “binds”.

Another assay addresses T2, Ebola virus glycoprotein (EBOV GP), trimer of the GP1 + GP2 heterodimer lacking the transmembrane domain (Ebola virus, Mayinga strain, UniProt Q05320).
T2 construct: also called soluble Ebola virus glycoprotein; EBOV GP trimer complex of GP1 + GP2 heterodimer; source: Drosophila S2 cells; supplied by Integrated Biotherapeutics, purified
The experiment in a line: SPR. The settings on record: both partners purified.
T2 sequence (Q05320 33-637, one chain of several): as above
As for B4, the binding result is “binds”.

As for B5, the binding result was “binds”. The same measure, in the same setting: the result for B6 reads “binds”.
